Experimental data: US20140154256A1 (published 2014)
Read-outs that look alike come from different tables or passages of the source.

Assays:
mouse IL-1β = mouse IL-1β (mouse, UniProt P10749 118-269); assay: cell-based or functional assay
mouse IL-1α = molecular target: T1, mouse IL-1α (mouse, UniProt P01582 115-270); assay: cell-based or functional assay
T1 sequence (looked up): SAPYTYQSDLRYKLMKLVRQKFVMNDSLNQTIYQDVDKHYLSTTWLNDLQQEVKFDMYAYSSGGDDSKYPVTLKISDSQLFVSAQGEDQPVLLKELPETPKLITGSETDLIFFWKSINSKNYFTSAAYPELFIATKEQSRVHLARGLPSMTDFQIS

[1] = molecular target: T2, human CD20 on human B cell line Raji (human, UniProt P11836 1-297); assay: flow cytometry staining of Raji B cells, FITC goat anti-murine IgG
T2 construct: whole, on cells; also called hCD20
T2 sequence (looked up): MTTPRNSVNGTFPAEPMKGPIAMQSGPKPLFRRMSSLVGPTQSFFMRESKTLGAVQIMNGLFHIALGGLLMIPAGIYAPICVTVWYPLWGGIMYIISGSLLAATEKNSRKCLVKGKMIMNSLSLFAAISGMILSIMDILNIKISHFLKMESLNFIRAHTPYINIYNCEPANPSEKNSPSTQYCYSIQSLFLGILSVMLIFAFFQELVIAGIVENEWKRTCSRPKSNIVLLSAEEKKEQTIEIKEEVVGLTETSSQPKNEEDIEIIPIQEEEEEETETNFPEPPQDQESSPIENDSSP
From the text: The anti-CD20/anti-CD3 DVD-Ig was generated as chimeric Ig i.e the constant region was a human constant region. For binding analysis, human T cell line Jurkat and B cell line Raji were blocked with human IgG and then stained with murine anti-hCD3 mAb OKT3, murine anti-hCD20 mAb 1F5, and anti-CD20/anti-CD3 DVD-Ig. Cells were then washed and stained with FITC-labeled goat anti-murine IgG (with no anti-hIgG cross-reactivity). Anti-CD20/CD3 DVD-Ig bound both T and B cells, whereas CD3 and CD20 mAbs bound only T or B cells, respectively. The amino acid sequence of CD20/CD3 DVD-Ig is disclosed in Table 25.

human IL-12 [2] = molecular target: T3, human IL-12 (human, UniProt P29459 23-219; P29460 23-328); assay: cell-based or functional assay
T3 sequence (looked up) 1: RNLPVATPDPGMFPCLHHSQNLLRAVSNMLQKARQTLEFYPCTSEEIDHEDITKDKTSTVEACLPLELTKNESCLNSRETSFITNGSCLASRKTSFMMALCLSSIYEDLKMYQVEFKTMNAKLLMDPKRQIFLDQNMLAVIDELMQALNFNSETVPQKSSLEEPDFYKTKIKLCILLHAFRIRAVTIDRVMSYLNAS
T3 sequence (looked up) 2: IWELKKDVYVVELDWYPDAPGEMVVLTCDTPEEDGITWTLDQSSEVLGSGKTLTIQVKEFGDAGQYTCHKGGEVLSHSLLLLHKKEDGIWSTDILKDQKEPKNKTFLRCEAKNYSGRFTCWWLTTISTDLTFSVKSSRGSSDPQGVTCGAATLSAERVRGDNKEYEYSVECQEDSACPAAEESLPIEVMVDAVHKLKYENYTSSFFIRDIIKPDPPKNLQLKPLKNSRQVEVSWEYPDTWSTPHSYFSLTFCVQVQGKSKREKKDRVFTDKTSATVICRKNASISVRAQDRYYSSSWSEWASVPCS

human IL-12 [3] = molecular target: T3, human IL-12; assay: SPR (Biacore)
human IL-18 [4] = molecular target: T4, human IL-18 (human, UniProt Q14116 37-193); assay: SPR (Biacore)
T4 construct: also called hIL-18

human IL-18 [5] = molecular target: T4, human IL-18; assay: SPR (Biacore); remark: listed apart in the source
human IL-18 [6] = molecular target: T4, human IL-18; assay: cell-based or functional assay
human IL-18 [7] = molecular target: T4, human IL-18; assay: cell-based or functional assay; remark: listed apart in the source
human IL-18 [8] = molecular target: T4, human IL-18; assay: SPR (Biacore); remark: listed apart in the source
human IL-18 [9] = molecular target: T4, human IL-18; assay: cell-based or functional assay; remark: listed apart in the source
human IL-12 [10] = molecular target: T3, human IL-12; assay: SPR (Biacore); remark: listed apart in the source
human IL-12 [11] = molecular target: T3, human IL-12; assay: SPR (Biacore); remark: listed apart in the source
human IL-12 [12] = molecular target: T3, human IL-12; assay: cell-based or functional assay; remark: listed apart in the source
human IL-12 [13] = molecular target: T3, human IL-12; assay: cell-based or functional assay; remark: listed apart in the source
[14] = molecular target: T2, human CD20 on human B cell line Raji; assay: preliminary cell surface binding study

mouse IL-1β, sequence (P10749 118-269 limits assumed): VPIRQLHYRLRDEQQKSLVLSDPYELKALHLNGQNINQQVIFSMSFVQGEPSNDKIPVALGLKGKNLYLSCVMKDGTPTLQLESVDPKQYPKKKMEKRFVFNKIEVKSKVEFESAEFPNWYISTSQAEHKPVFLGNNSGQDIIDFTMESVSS

B1: mIL-1α/β DVD-Ig (bispecific antibody, mouse IgG2a, kappa)
heavy: EVQLQQSGPELVKPGTSVKMSCKTSGYTFTSYVMHWVKQKPGQGLEWIGYIIPYNDNTKYNEKFKGKATLTSDKSSSTAYMELSSLTSEDSAVYYCARRNEYYGSSFFDYWGQGTTLTVSSAKTTAPSVYPLAPQVILKESGPGILQPSQTLSLTCSFSGFSLSTYGTAVNWIRQPSGKGLEWLAQIGSDDRKLYNPFLKSRITLSEDTSNSQVFLKITSVDTEDSATYYCANGVMEYWGLGTSVTVSSAKTTAPSVYPLAPVCGDTTGSSVTLGCLVKGYFPEPVTLTWNSGSLSSGVHTFPAVLQSDLYTLSSSVTVTSSTWPSQSITCNVAHPASSTKVDKKIEPRGPTIKPCPPCKCPAPNLLGGPSVFIFPPKIKDVLMISLSPIVTCVVVDVSEDDPDVQISWFVNNVEVHTAQTQTHREDYNSTLRVVSALPIQHQDWMSGKEFKCKVNNKDLPAPIERTISKPKGSVRAPQVYVLPPPEEEMTKKQVTLTCMVTDFMPEDIYVEWTNNGKTELNYKNTEPVLDSDGSYFMYSKLRVEKKNWVERNSYSCSVVHEGLHNHHTTKSFSRTPGK
light: DIQMTQSPASLSASVGETVTITCRGSGILHNYLVWYQQKQGKSPQLLVYSAKILADGVPSRFSGSGSGTQYSLKINSLQPEDFGSYYCQHFWSTPFTFGSGTKLEIKRADAAPTVSIFPPSIVMTQTPKFLLVSAGDRVTITCKASQSVNHDVAWYQQMPGQSPKLLIYFASNRYTGVPDRFTGSGYGTDFTFTISTVQAEDLAVYFCQQDYSSPYTFGGGTKLEIKRADAAPTVSIFPPSSEQLTSGGASVVCFLNNFYPKDINVKWKIDGSERQNGVLNSWTDQDSKDSTYSMSSTLTLTKDEYERHNSYTCEATHKTSTSPIVKSFNRNEC
**Q.** Which results are given for B1?
**A.** IC50 (M), in vitro potency (assay not described) (mouse IL-1β): 8e-10 M; IC50 (M), in vitro potency (assay not described) (mouse IL-1α): 2e-09 M

B2: murine anti-human-CD20 mAb clone 5F1 (antibody, V domains shown)
VH: QVQLRQPGAELVKPGASVKMSCKASGYTFTSYNMHWVKQTPGQGLEWIGAIYPGNGDTSYNQKFKGKATLTADKSSSTAYMQLSSLTSEDSAVYYCARSHYGSNYVDYFDYWGQGTTLTVSS
VL: QIVLSQSPAILSASPGEKVTMTCRASSSLSFMHWYQQKPGSSPKPWIYATSNLASGVPARFSGSGSGTSYSLTISRVEAEDAATYFCHQWSSNPLTFGAGTKLELKR
notes: Murine mAb
**Q.** Does B2 bind [1]?
**A.** Result: binds

B3: anti-IL-12 mAb clone 1D4.1 (antibody, V domains shown)
VH: EVTLRESGPALVKPTQTLTLTCTFSGFSLSKSVMGVSWIRQPPGKALEWLAHIYWDDDKYYNPSLKSRLTISKDTSKNQVVLTMTNMDPVDTATYYCARRGIRSAMDYWGQGTTVTVSS
VL: DIVMTQSPDSLAVSLGERATINCKASQSVSNDVAWYQQKPGQPPKLLIYYASNRYTGVPDRFSGSGSGTDFTLTISSLQAEDVAVYYCQQDYNSPWTFGGGTKVEIKR
notes: Parent anti-IL-12 mAb
**Q.** What does the source list for B3?
**A.** Potency (IC50, M), PBMC assay (IL-12) (human IL-12 [2]): 4.18e-10 M; Kd (human IL-12 [3]): 0.12 nM

B4: ABT325 (fully human mAb against human IL-18) (antibody, V domains shown)
VH: EVQLVQSGTEVKKPGESLKISCKGSGYTVTSYWIGWVRQMPGKGLEWMGFIYPGDSETRYSPTFQGQVTISADKSFNTAFLQWSSLKASDTAMYYCARVGSGWYPYTFDIWGQGTMVTVSS
VL: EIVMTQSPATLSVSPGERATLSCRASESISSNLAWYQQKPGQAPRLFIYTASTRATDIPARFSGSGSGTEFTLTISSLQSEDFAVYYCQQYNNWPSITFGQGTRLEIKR
notes: Fully human mAb with a Vκ
**Q.** B4 was tested. Which Kd (human IL-18 [4]) did it give?
**A.** The Kd was 0.137 nM.

**Q.** And the Kd (human IL-18 [5])?
**A.** The Kd was 0.137 nM.

**Q.** What about the “Potency (IC50), KG-1 Assay” value (human IL-18 [6]) of the same binder?
**A.** Its value is 0.3 nM.

**Q.** What about the “Potency (IC50, M), KG-1 bioassay (IL-18)” value (human IL-18 [7]) of the same binder?
**A.** Its value is 6.87e-11 M.

**Q.** What about the Kd (human IL-18 [8]) of the same binder?
**A.** Its Kd is 0.191 nM.

**Q.** What about the “IC50 (M), KG-1 bioassay (IFN-γ production)” value (human IL-18 [9]) of the same binder?
**A.** The value was 3e-10 M.

B5: ABT874 (fully human mAb against human IL-12p40) (antibody, V domains shown)
VH: QVQLVESGGGVVQPGRSLRLSCAASGFTFSSYGMHWVRQAPGKGLEWVAFIRYDGSNKYYADSVKGRFTISRDNSKNTLYLQMNSLRAEDTAVYYCKTHGSHDNWGQGTMVTVSS
VL: QSVLTQPPSVSGAPGQRVTISCSGSRSNIGSNTVKWYQQLPGTAPKLLIYYNDQRPSGVPDRFSGSKSGTSASLAITGLQAEDEADYYCQSYDRYTHPALLFGTGTKVTVLG
notes: Fully human mAb with a Vλ
**Q.** Which Kd (human IL-12 [10]) does the source give for B5 here?
**A.** Its Kd is 0.065 nM.

**Q.** What about the Kd (human IL-12 [11]) of the same binder?
**A.** The Kd was 0.0647 nM.

**Q.** And the “Potency (IC50), PHA-Blast Assay” value (human IL-12 [12])?
**A.** Its value is 0.005 nM.

**Q.** And the “IC50 (M), IL-12-induced IFN-γ production by PHA blast cells (PBMC assay)” value (human IL-12 [13])?
**A.** The value was 5e-12 M.

B6: anti-CD20/anti-CD3 DVD-Ig (CD20CD3DVD-Ig) (bispecific antibody, human IgG1, kappa)
heavy: not shown
light: QIVLSQSPAILSASPGEKVTMTCRASSSLSFMHWYQQKPGSSPKPWIYATSNLASGVPARFSGSGSGTSYSLTISRVEAEDAATYFCHQWSSNPLTFGAGTKLELKRADAAPTVSIFPPQIVLTQSPAIMSASPGEKVTMTCSASSSVSYMNWYQQKSGTSPKRWIYDTSKLASGVPAHFRGSGSGTSYSLTISGMEAEDAATYYCQQWSSNPFTFGSGTKLEINRTVAAPSVFIFPPSDEQLKSGTASVVCLLNNFYPREAKVQWKVDNALQSGNSQESVTEQDSKDSTYSLSSTLTLSKADYEKHKVYACEVTHQGLSSPVTKSFNRGEC
notes: VCD20-linker-VCD3-constant; chimeric Ig with human constant region; also called Anti-CD20/CD3 DVD-Ig
**Q.** Does B6 bind [14]?
**A.** Result: binds
